Measurements as given in patent US20220143136A1, “USE OF ANNEXINS IN PREVENTING AND TREATING MUSCLE MEMBRANE INJURY” (NORTHWESTERN UNIVERSITY, priority 2018, published 2022).
Entries after “also recorded” stand apart in the source; their conditions may differ.

How the values were obtained:
Isolated FDB fibers = test: Single cell Ca2+ and shortening measurements; assay type: cell-based, mouse; details: annexin A6 overexpression vs control fibers
Description: Single cell Ca^2+ and shortening measurements. Isolated FDB fibers were plated on laminin coated glass-bottomed 35 mm dishes for one hour and then cultured overnight in DMEM with 10% FBS and 1% penicillin/streptomycin at 37° C. in a 10% CO2 incubator. One hour prior to data acquisition, the medium was removed and cells were incubated in Tyrode buffer (119 mM NaCl, 5 mM KCl, 25 mM HEPES, 2 mM CaCl2, 2 mM MgCl2) with 10 μM Indo-1 AM (TefLabs) for 1 hour at 37° C. in a 10% CO2 incubator. Dishes were then filled with Tyrode buffer, mounted on a custom stage and platinum pacing electrodes were inserted into the dish. Stimulation was elicited using a 701C high-powered stimulator controlled by the 950A software (Aurora Scientific). Stimulation was performed at 40 and 80 Hz, 5 ms pulse width, 100 ms duration. Ratiometric Ca^2+ signals were collected with two photomultiplier tubes and a FluoroDaq controller. Video sarcomere length was recorded with a high-speed camera and fast Fourier transform using the Aurora Scientific 900B-VSL system (Aurora, Ontario). Ten transients were collected over 20 seconds and averaged together per cell per frequency.

wildtype myofibers = test: Laser-induced membrane injury, FM 4-64 dye uptake; assay type: cell-based, mouse; details: for FM 4-64 fluorescence area / dye uptake after laser injury: extracellular recombinant protein vs vehicle control
[1] = tested on: dysferlin-null (Dysf129) myofibers; test: Laser-induced membrane injury, FM 4-64 dye uptake, dysferlin-null myofibers; assay type: cell-based, mouse; details: LGMD2B model
Description: Myofiber isolation. Flexor digitorum brevis (FDB) fibers were isolated with methods that were described previously in (Demonbreun and McNally, 2015; Demonbreun et al., 2016b; DiFranco et al., 2009). Briefly, fibers were dissociated in 0.2% BSA plus collagenase type II (Cat #17101, Thermo Fisher Scientific, Waltham, Mass.) for 60 minutes at 37 degrees in 10% CO2. Fibers were then moved to Ringers solution and placed on MatTek confocal microscopy dishes (Cat #P35G-1.5-14-C, MatTek, Ashland Mass.).
Multiphoton laser injury and imaging. Isolated fibers were subjected to laser-induced damage at room temperature using the Nikon A1R-MP multiphoton microscope. Imaging was performed using a 25×1.1 NA objective directed by the NIS-Elements AR imaging software. Green fluorescence protein (GFP) and FM 4-64 were excited using a 920 nm wavelength laser and emission wavelengths of 575 nm and 629 nm were collected respectively. […] Fluorescence intensity and cap area were measured using Fiji (NIH).
For recombinant protein studies, myofibers were isolated from mice as described above. […] Cap size was assessed from acquired images in FIJI. […] Images were acquired and quantitated as described above. FM 4-64 fluorescence at endpoint was measured using FIJI.

[2] = tested on: mdx/hLTBP4 dystrophic muscle; test: Anti-HIS immunofluorescence localization after systemic injection, mdx/hLTBP4; assay type: in vivo, mouse; details: 6 hours post systemic injection, vs PBS
Description: Immunofluorescence microscopy. Sections (10 μm thick) from the center of frozen-embedded muscles were collected on the cryostat (chamber, −20° C.; sample, −15° C.; catalog number CM1950; Leica, Wetzlar, Germany) for immunostaining. Tissues were fixed with 4% paraformaldehyde for 10 minutes on ice. Block and permeabilization were with 0.1% Triton (catalog number X-100; Sigma-Aldrich), 10% fetal bovine serum, and PBS for 60 minutes. For dystrophin detection, anti-dystrophin (ab15277; Abcam, Cambridge, Mass.) was used at a dilution of 1:100 overnight at 4° C. Sections were PBS rinsed, incubated with secondary antibody goat anti rabbit (A11008, Invitrogen) for 1 hour, PBS rinsed, and mounted in vectashield with DAPI (H-1200, Vector Laboratories). Imaging was performed using a Zeiss Axio Observer A1 microscope (Zeiss, Oberkochen, Germany), using a 10× objective. ZEN software (Zeiss, Jena, Germany) was used for acquiring images. Fluorescence quantitation and muscle area were performed using FIJI (NIH). Surface plots were created in FIJI (NIH). Fluorescence volume was quantified using Imaris Software v9.1.2.
Immunofluorescence microscopy. Mice were systemically injected with recombinant annexin A6 with a C-terminal HIS tag (R&D). Muscle was harvested and flash frozen. […]

[3] = tested on: tibialis anterior muscles of wildtype mice; test: Cardiotoxin injection and histology 7 days post injury; assay type: in vivo, mouse; details: 1 mg/kg retro-orbital 2 hours before cardiotoxin, vs BSA control
Description: Cardiotoxin injection and histology. […] Two hours post injection mice were sedated for a second time. While sedated the tibialis anterior muscles were injected along the midline with 10 μm cardiotoxin in 20 ul of PBS as described above. Seven days post injection, the muscle was isolated and frozen. Muscle sections were acquired every 100 μm from muscle tendon into the mid belly, fixed and stained with hematoxylin and eosin. Imaging was performed using a Zeiss Axio Observer A1 microscope (Zeiss, Oberkochen, Germany), using a 10× objective. ZEN software (Zeiss, Jena, Germany) was used for acquiring tiled images. Percent injury area was calculated as the average injured area (containing internal myonuclei) divided by total muscle area of 3 sections per muscle. One muscle from each group was excluded due to technical error in tissue processing. Damage area was measured using FIJI (NIH).

Molecule	Ca2+ cycling (Indo-1) (Isolated FDB fibers; 40 or 80 Hz stimulation)	unloaded cell shortening (Isolated FDB fibers)	FM 4-64 dye uptake after laser-induced injury (wildtype myofibers; plasmid overexpression of annexin A6-GFP vs mock electroporated control)	FM 4-64 dye uptake after laser injury ([1]; plasmid overexpression of annexin A6 vs control)	anti-HIS staining at the sarcolemma / plasma membrane ([2]; listed as rANXA6)	anti-HIS staining at the sarcolemma / plasma membrane ([2]; listed as recombinant annexin A6-HIS)	percentage of injured muscle (internal myonuclei), histology [3]	percentage of injured muscle (internal myonuclei), histology ([3]; listed as rANXA6)	FM 4-64 fluorescence area / dye uptake after laser injury (wildtype myofibers)	FM 4-64 fluorescence area / dye uptake after laser injury (wildtype myofibers; listed as rANXA6)	FM 4-64 fluorescence area after laser injury ([1]; extracellular recombinant protein vs vehicle control)
annexin A6: annexin A6 with carboxyl-terminal turboGFP or tdTomato tag, expressed from plasmid electroporated into myofibers (protein, UniProt P14824 2-673, looked up, C-terminal turboGFP or tdTomato tag, annexin A6 with carboxyl-terminal turboGFP or tdTomato tag, expressed from plasmid electroporated into myofibers) Annexin A6: AKIAQGAMYRGSVHDFPEFDANQDAEALYTAMKGFGSDKESILELITSRSNKQRQEICQNYKSLYGKDLIEDLKYELTGKFERLIVNLMRPLAYCDAKEIKDAISGVGTDEKCLIEILASRTNEQMHQLVAAYKDAYERDLESDIIGDTSGHFQKMLVVLLQGTRENDDVVSEDLVQQDVQDLYEAGELKWGTDEAQFIYILGNRSKQHLRLVFDEYLKTTGKPIEASIRGELSGDFEKLMLAVVKCIRSTPEYFAERLFKAMKGLGTRDNTLIRIMVSRSELDMLDIREIFRTKYEKSLYSMIKNDTSGEYKKALLKLCGGDDDAAGQFFPEAAQVAYQMWELSAVSRVELKGTVCAANDFNPDADAKALRKAMKGIGTDEATIIDIVTHRSNAQRQQIRQTFKSHFGRDLMADLKSEISGDLARLILGLMMPPAHYDAKQLKKAMEGAGTDEKTLIEILATRTNAEIRAINEAYKEDYHKSLEDALSSDTSGHFRRILISLATGNREEGGENRDQAQEDAQVAAEILEIADTPSGDKTSLETRFMTVLCTRSYPHLRRVFQEFIKKTNYDIEHVIKKEMSGDVKDAFVAIVQSVKNKPLFFADKLYKSMKGAGTDEKTLTRVMVSRSEIDLLNIRREFIEKYDKSLHQAIEGDTSGDFMKALLALCGGED	no differences	unaffected	decreased; also recorded: reduced	significant reduction; also recorded: reduced	–	–	–	–	–	–	–
recombinant annexin A6: recombinant human annexin A6 protein with C-terminal HIS tag (5186-A6-050, R&D systems); mouse protein from Northwestern core in one cohort (protein, UniProt P08133 2-673, looked up, C-terminal His tag, recombinant human annexin A6 protein with C-terminal HIS tag (5186-A6-050, R&D systems); mouse protein from Northwestern core in one cohort) Annexin A6: AKPAQGAKYRGSIHDFPGFDPNQDAEALYTAMKGFGSDKEAILDIITSRSNRQRQEVCQSYKSLYGKDLIADLKYELTGKFERLIVGLMRPPAYCDAKEIKDAISGIGTDEKCLIEILASRTNEQMHQLVAAYKDAYERDLEADIIGDTSGHFQKMLVVLLQGTREEDDVVSEDLVQQDVQDLYEAGELKWGTDEAQFIYILGNRSKQHLRLVFDEYLKTTGKPIEASIRGELSGDFEKLMLAVVKCIRSTPEYFAERLFKAMKGLGTRDNTLIRIMVSRSELDMLDIREIFRTKYEKSLYSMIKNDTSGEYKKTLLKLSGGDDDAAGQFFPEAAQVAYQMWELSAVARVELKGTVRPANDFNPDADAKALRKAMKGLGTDEDTIIDIITHRSNVQRQQIRQTFKSHFGRDLMTDLKSEISGDLARLILGLMMPPAHYDAKQLKKAMEGAGTDEKALIEILATRTNAEIRAINEAYKEDYHKSLEDALSSDTSGHFRRILISLATGHREEGGENLDQAREDAQVAAEILEIADTPSGDKTSLETRFMTILCTRSYPHLRRVFQEFIKMTNYDVEHTIKKEMSGDVRDAFVAIVQSVKNKPLFFADKLYKSMKGAGTDEKTLTRIMVSRSEIDLLNIRREFIEKYDKSLHQAIEGDTSGDFLKALLALCGGED	–	–	–	–	localized to the plasma membrane	presence of recombinant annexin A6-HIS at the sarcolemma	reduced	reduction	reduced	significantly smaller; also recorded: significantly less	reduced; also recorded: decreased
